The record followed here is patent publication US20200000897A1 (published 2020).

B1: LLDAEPPILY (peptide)
peptide: LLDAEPPILY
B2: KTQFPQLK (peptide)
peptide: KTQFPQLK
B3: VTADGALAMEK (peptide)
peptide: VTADGALAMEK
B4: SLFPYYNNLY (peptide)
peptide: SLFPYYNNLY
B5: RLGAARGQLR (peptide)
peptide: RLGAARGQLR
B6: RLVELAGQSLLK (peptide)
peptide: RLVELAGQSLLK
B7: EVILTTKTPK (peptide)
peptide: EVILTTKTPK
B8: FSNNHPSTPK (peptide)
peptide: FSNNHPSTPK
B9: VVFPFPVNKR (peptide)
peptide: VVFPFPVNKR
B10: VLLLLSLLH (peptide)
peptide: VLLLLSLLH
B11: KCYEVGMMK (peptide)
peptide: KCYEVGMMK
B12: KVLSILSRLK (peptide)
peptide: KVLSILSRLK
B13: KQALSLVRK (peptide)
peptide: KQALSLVRK
B14: RLPLRVVKH (peptide)
peptide: RLPLRVVKH
B15: HSAGIFSMY (peptide)
peptide: HSAGIFSMY
B16: SGSTLECILYK (peptide)
peptide: SGSTLECILYK
B17: KGWNGQIFK (peptide)
peptide: KGWNGQIFK
B18: TVYDSIWCNMK (peptide)
peptide: TVYDSIWCNMK
B19: RLSPGPRAY (peptide)
peptide: RLSPGPRAY
B20: KGPMAGILAY (peptide)
peptide: KGPMAGILAY
B21: VVREILHAQTLK (peptide)
peptide: VVREILHAQTLK
B22: VLYELGIIGNNK (peptide)
peptide: VLYELGIIGNNK
B23: IIFVPEMNK (peptide)
peptide: IIFVPEMNK
B24: KLLEDMVEK (peptide)
peptide: KLLEDMVEK
B25: HAFPPGPNY (peptide)
peptide: HAFPPGPNY
B26: RTIEELQNK (peptide)
peptide: RTIEELQNK
B27: RCFSGPYLNK (peptide)
peptide: RCFSGPYLNK
B28: SVLSRMLVR (peptide)
peptide: SVLSRMLVR
B29: GLSTILLYH (peptide)
peptide: GLSTILLYH
B30: TTYYPSPLNK (peptide)
peptide: TTYYPSPLNK
B31: HVLYPVPLESY (peptide)
peptide: HVLYPVPLESY
B32: VTAVASLLK (peptide)
peptide: VTAVASLLK
B33: KTWAHCMSY (peptide)
peptide: KTWAHCMSY
B34: RVLYRPQLEK (peptide)
peptide: RVLYRPQLEK
B35: ILDSSLLK (peptide)
peptide: ILDSSLLK
B36: SLYDSEPRKK (peptide)
peptide: SLYDSEPRKK
B37: ALFGNALVFY (peptide)
peptide: ALFGNALVFY
B38: LLYGNGPGYVLK (peptide)
peptide: LLYGNGPGYVLK
B39: GIFPKIMPK (peptide)
peptide: GIFPKIMPK
B40: AIGTPLIGK (peptide)
peptide: AIGTPLIGK
B41: QLGYQAAVLK (peptide)
peptide: QLGYQAAVLK
B42: STLECILYK (peptide)
peptide: STLECILYK
B43: AVAQKLLSH (peptide)
peptide: AVAQKLLSH
B44: KLETGVVKK (peptide)
peptide: KLETGVVKK
B45: KLYPQCLQK (peptide)
peptide: KLYPQCLQK
B46: ALNDRFAGY (peptide)
peptide: ALNDRFAGY
B47: RVCMTVDSLVNK (peptide)
peptide: RVCMTVDSLVNK
B48: GMYEYGSIEK (peptide)
peptide: GMYEYGSIEK
B49: RLSAESKDLLK (peptide)
peptide: RLSAESKDLLK
B50: AVCGGVLVH (peptide)
peptide: AVCGGVLVH
B51: TMWQIPQEFVK (peptide)
peptide: TMWQIPQEFVK
B52: SSFRPLLSK (peptide)
peptide: SSFRPLLSK
B53: VVTGNVPLK (peptide)
peptide: VVTGNVPLK
B54: QIRAELMKK (peptide)
peptide: QIRAELMKK
B55: GVTITKTLK (peptide)
peptide: GVTITKTLK
B56: ITAPLMPLGK (peptide)
peptide: ITAPLMPLGK
B57: HAFFPKTHR (peptide)
peptide: HAFFPKTHR
B58: KINQYIIKK (peptide)
peptide: KINQYIIKK
B59: RVKEIVINK (peptide)
peptide: RVKEIVINK
B60: VLYRPQLEK (peptide)
peptide: VLYRPQLEK
B61: SIFGLAPGK (peptide)
peptide: SIFGLAPGK

This experiment addresses T1, HLA-A*03:01 (human).
T1 construct: MHC class I monomer first loaded with a UV-sensitive peptide that is cleaved by UV irradiation and exchanged for the test peptide; captured on streptavidin plates; also called peptide-receptive MHC molecules
As to the kind of experiment: UV-ligand exchange, anti-b2m ELISA; peptide exchange yield grade (>10% +, >20% ++, >50% +++, >75% ++++). An excerpt:
Candidate peptides for T cell based therapies according to the present invention were further tested for their MHC binding capacity (affinity). The individual peptide-MHC complexes were produced by UV-ligand exchange, where a UV-sensitive peptide is cleaved upon UV-irradiation and exchanged with the peptide of interest as analyzed. Only peptide candidates that can effectively bind and stabilize the peptide-receptive MHC molecules prevent dissociation of the MHC complexes. To determine the yield of the exchange reaction, an ELISA was performed based on the detection of the light chain (β2m) of stabilized MHC complexes. The assay was performed as generally described in Rodenko et al. (Rodenko et al., 2006)
96 well MAXISorp plates (NUNC) were coated over night with 2 ug/ml streptavidin in PBS at room temperature, washed 4× and blocked forl h at 37° C. in 2% BSA containing blocking buffer. Refolded HLA-A*02:01/MLA-001 monomers served as standards, covering the range of 15-500 ng/ml. Peptide-MHC monomers of the UV-exchange reaction were diluted 100-fold in blocking buffer. Samples were incubated for 1 h at 37° C., washed four times, incubated with 2 ug/ml HRP conjugated anti-β2m for 1 h at 37° C., washed again and detected with TMB solution that is stopped with […]. Absorption was measured at 450 nm.
For orientation: An ELISA detects its analyte on a solid surface through an enzyme-linked reagent.
In turn, B1 came in with a peptide exchange yield of 10 to 20%. The same measure for B2: 20 to 50%; for B3: 50 to 75%. The result for B4 reads 10 to 20%; that for B5, 20 to 50%. B6: the peptide exchange yield is greater than 75%. B7 came in with a peptide exchange yield of 20 to 50%. The result for B8 reads 50 to 75%. The result for B9 reads 50 to 75%. With B10, the peptide exchange yield is 20 to 50%. The same measure for B11: greater than 75%; for B12: 50 to 75%; for B13: 50 to 75%. B14: the peptide exchange yield was greater than 75%.

B15 yielded a peptide exchange yield of 20 to 50%. The result for B16 reads greater than 75%. The same measure for B17: 50 to 75%; for B18: greater than 75%; for B19: 50 to 75%. The same measure for B20: 20 to 50%; for B21: 50 to 75%. The molecule B22 showed a peptide exchange yield of 50 to 75%. The result for B23 reads greater than 75%. Turning to B24, the peptide exchange yield lay within 20 to 50%. The same measure for B25: 10 to 20%; for B26: 50 to 75%; for B27: greater than 75%. The same measure for B28: greater than 75%. The result for B29 reads greater than 75%; that for B30, 50 to 75%.

As to B31, the peptide exchange yield lay in the range of 50 to 75%.

Regarding B32, the peptide exchange yield was greater than 75%.

Turning to B33, the peptide exchange yield was greater than 75%. The result for B34 reads 50 to 75%; that for B35, 20 to 50%.

On to B36, for which the peptide exchange yield is greater than 75%. The result for B37 reads greater than 75%.

In turn, B38 yielded a peptide exchange yield greater than 75%.

B39 returned a peptide exchange yield greater than 75%. The same measure for B40: 50 to 75%. The same measure for B41: 50 to 75%.

Molecule B42 gave a peptide exchange yield greater than 75%. The same measure for B43: greater than 75%. The result for B44 reads greater than 75%. The result for B45 reads greater than 75%; that for B46, 50 to 75%; that for B47, greater than 75%. B48 yielded a peptide exchange yield greater than 75%. Consider B49, for which the peptide exchange yield was in the range of 50 to 75%.

Turning to B50, the peptide exchange yield is greater than 75%. The result for B51 reads greater than 75%. The same measure for B52: greater than 75%; for B53: 50 to 75%; for B54: greater than 75%. The same measure for B55: 50 to 75%. In turn, B56 gave a peptide exchange yield greater than 75%.

B57 registered a peptide exchange yield greater than 75%. The same measure for B58: 50 to 75%; for B59: 50 to 75%.

As to B60, the peptide exchange yield is greater than 75%. B61 yielded a peptide exchange yield greater than 75%.
